Sequences and labels used below:
B1: glmS ribozyme (parent)
chain: AUAAAAGCGCCAGAACUACAGAAAUGUAGUUGACGAGGAGGAGGUUUAUCGAAUUUUCGGCGGAUGCCUCCAAA

Holding throughout (conditions): with glucosamine-6-phosphate
In series [1] the parent is B1. Briefly: kcat; higher = faster cleavage; RNA array. The method in brief:
(§1)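 Sequenced MiSeq chips were the platform: E. coli RNA polymerase transcribed barcoded ribozyme variants on them in situ, and a hybridised Cy3 probe tracked these at 37 °C. After glucosamine-6-phosphate (40 μM to 10 mM) in HEPES/KCl/Mg(OAc)2 buffer was flowed in, tiles were imaged over ~14 h. Signals normalised to baseline and to non-cleaving reference variants were reduced to per-tile medians and fit to one- or two-exponential decays to obtain kobs. kcat and KM were derived through weighted Michaelis–Menten fits across concentrations.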

Variants of B1 are the subject of series [2]. Briefly: KM; higher = weaker cofactor use; RNA array. The method in brief: as §1
In series [3] the parent is B1. As to the kind of experiment: self-cleavage kobs at 160 uM GlcN6P; higher = faster cleavage; RNA array. An outline of the steps: as §1
Series [4] covers variants of B1. As to the kind of experiment: self-cleavage kobs at 640 uM GlcN6P; higher = faster cleavage; RNA array. The method in brief: as §1
The variants in series [5] derive from B1. As to the kind of experiment: self-cleavage kobs at 2500 uM GlcN6P; higher = faster cleavage; RNA array. The method in brief: as §1
In series [6] the parent is B1. As to the kind of experiment: self-cleavage kobs at 10000 uM GlcN6P; higher = faster cleavage; RNA array. The method in brief: as §1
The variants in series [7] derive from B1. As to the kind of experiment: self-cleavage kobs at 40 uM GlcN6P; higher = faster cleavage; RNA array. The method in brief:
as §1

± gives the standard error. For part of these data: Fewer inactive variants are shown than the library holds. Some results are limits rather than exact numbers.

Broadly, the kcat is the maximal rate divided by the concentration of active sites. For A6C A15C, the kcat in series [1] was 3.27e-05 ± 1.8e-06 s⁻¹.

Broadly, the KM is the substrate concentration at which the rate is half of its maximum. On to C16U U65C, for which, in series [1], the turnover number (kcat) amounted to 0.000756 ± 0.00022 s⁻¹. Further, the KM in series [2] was determined as 2290 ± 1100 µM. Moreover, the “self-cleavage kobs at 160 uM GlcN6P” value in series [3] worked out at 8.27e-05 ± 1.8e-05 s⁻¹. Also, the “self-cleavage kobs at 640 uM GlcN6P” value in series [4] amounted to 0.000152 ± 2.2e-05 s⁻¹. For the same variant, the “self-cleavage kobs at 2500 uM GlcN6P” value in series [5] came out at 0.000332 ± 6.8e-05 s⁻¹. Moreover, in series [6], the “self-cleavage kobs at 10000 uM GlcN6P” value stood at 0.000697 ± 0.00011 s⁻¹.

Consider U54C, for which the turnover number (kcat) in series [1] came to 0.0582 ± 0.0055 s⁻¹. Moreover, in series [2], the KM is 2290 ± 240 µM. In addition, the “self-cleavage kobs at 40 uM GlcN6P” value in series [7] amounted to 0.00101 ± 1.9e-05 s⁻¹. Also, the “self-cleavage kobs at 160 uM GlcN6P” value in series [3] amounted to 0.00345 ± 0.00027 s⁻¹. Besides, in series [4], the “self-cleavage kobs at 640 uM GlcN6P” value turned out to be 0.0121 ± 0.0007 s⁻¹. Moreover, the “self-cleavage kobs at 2500 uM GlcN6P” value in series [5] was 0.0274 ± 0.0017 s⁻¹. In addition, in series [6], the “self-cleavage kobs at 10000 uM GlcN6P” value amounted to 0.051 ± 0.0026 s⁻¹.

Regarding A12G U47A, in series [1], the kcat worked out at 0.00138 ± 0.00029 s⁻¹. For the same variant, the KM in series [2] is 5500 ± 1600 µM. Moreover, in series [4], the “self-cleavage kobs at 640 uM GlcN6P” value turned out to be 0.000152 ± 1.9e-05 s⁻¹. Moreover, the “self-cleavage kobs at 2500 uM GlcN6P” value in series [5] is 0.000455 ± 7.1e-05 s⁻¹. For the same variant, in series [6], the “self-cleavage kobs at 10000 uM GlcN6P” value was found to be 0.000864 ± 0.00013 s⁻¹.

Regarding A14U G29C, the kcat in series [1] was found to be 1.25e-05 ± 3.3e-06 s⁻¹.

In the case of G7U G66U C70G, in series [1], the kcat is < 1e-05 s⁻¹. Also, in series [5], the “self-cleavage kobs at 2500 uM GlcN6P” value is < 1e-05 s⁻¹.

Regarding C11U C16U C71U, the kcat in series [1] amounted to 0.000649 ± 0.00014 s⁻¹. In series [2], the KM stood at 1100 ± 540 µM. Moreover, the “self-cleavage kobs at 40 uM GlcN6P” value in series [7] is 4.58e-05 ± 1.8e-05 s⁻¹. Moreover, the “self-cleavage kobs at 640 uM GlcN6P” value in series [4] was determined as 0.000215 ± 4.6e-05 s⁻¹. In addition, the “self-cleavage kobs at 2500 uM GlcN6P” value in series [5] stood at 0.000443 ± 0.00011 s⁻¹. The “self-cleavage kobs at 10000 uM GlcN6P” value in series [6] was found to be 0.000614 ± 0.00012 s⁻¹.

With A12G A15G C70A, the kcat in series [1] amounted to 0.000107 ± 1.9e-05 s⁻¹. Moreover, the KM in series [2] is 2120 ± 890 µM. Further, the “self-cleavage kobs at 2500 uM GlcN6P” value in series [5] was found to be 5.85e-05 ± 1.1e-05 s⁻¹. Also, the “self-cleavage kobs at 10000 uM GlcN6P” value in series [6] was 8.6e-05 ± 3.1e-05 s⁻¹.

In the case of G13C C16U, in series [1], the kcat was 0.0002194 ± 1.1e-06 s⁻¹. Further, in series [2], the KM was found to be 4190 ± 58 µM. For the same variant, the “self-cleavage kobs at 2500 uM GlcN6P” value in series [5] amounted to 8.19e-05 ± 2.5e-05 s⁻¹. The “self-cleavage kobs at 10000 uM GlcN6P” value in series [6] was 0.000155 ± 1.9e-05 s⁻¹.

Regarding G43A U56A, in series [1], the kcat is 1.8e-05 ± 3.9e-06 s⁻¹.

Turning to G40A G41A U55G, the kcat in series [1] came to 8.3e-05 ± 7.3e-06 s⁻¹. Besides, in series [2], the KM came to 578 ± 220 µM. The “self-cleavage kobs at 640 uM GlcN6P” value in series [4] is 4.12e-05 ± 1.4e-05 s⁻¹. In series [5], the “self-cleavage kobs at 2500 uM GlcN6P” value came to 7.85e-05 ± 2.1e-05 s⁻¹. Also, the “self-cleavage kobs at 10000 uM GlcN6P” value in series [6] was 7.52e-05 ± 1.5e-05 s⁻¹.

On to G29A A39C, for which the kcat in series [1] was 0.000943 ± 4.4e-05 s⁻¹. In series [2], the KM turned out to be 1820 ± 150 µM. The “self-cleavage kobs at 40 uM GlcN6P” value in series [7] was found to be 2.46e-05 ± 8.5e-06 s⁻¹. The “self-cleavage kobs at 160 uM GlcN6P” value in series [3] turned out to be 7.61e-05 ± 1.5e-05 s⁻¹. Also, the “self-cleavage kobs at 640 uM GlcN6P” value in series [4] turned out to be 0.000243 ± 3.2e-05 s⁻¹. Besides, in series [5], the “self-cleavage kobs at 2500 uM GlcN6P” value was found to be 0.000521 ± 8.6e-05 s⁻¹. In addition, the “self-cleavage kobs at 10000 uM GlcN6P” value in series [6] stood at 0.000813 ± 9.1e-05 s⁻¹.

As to C10A U30C A53G C67A, the kcat in series [1] amounted to 1.94e-05 ± 4e-06 s⁻¹.

With G29A U45A, in series [1], the kcat stood at 0.0109 ± 0.003 s⁻¹. The Michaelis constant (KM) in series [2] came to 3200 ± 1300 µM. The “self-cleavage kobs at 40 uM GlcN6P” value in series [7] was 0.000219 ± 4.2e-05 s⁻¹. The “self-cleavage kobs at 160 uM GlcN6P” value in series [3] turned out to be 0.000411 ± 0.00014 s⁻¹. Further, the “self-cleavage kobs at 640 uM GlcN6P” value in series [4] was determined as 0.00159 ± 0.00032 s⁻¹. Also, the “self-cleavage kobs at 2500 uM GlcN6P” value in series [5] worked out at 0.00447 ± 0.0012 s⁻¹. For the same variant, the “self-cleavage kobs at 10000 uM GlcN6P” value in series [6] was determined as 0.00857 ± 0.0012 s⁻¹.

Turning to G7U C67G, the kcat in series [1] was < 1e-05 s⁻¹. Also, in series [5], the “self-cleavage kobs at 2500 uM GlcN6P” value is < 1e-05 s⁻¹.

Consider A15C U31G, for which the kcat in series [1] stood at 0.00453 ± 0.0018 s⁻¹. In series [7], the “self-cleavage kobs at 40 uM GlcN6P” value is 8.5e-05 ± 3.2e-05 s⁻¹. Besides, the “self-cleavage kobs at 160 uM GlcN6P” value in series [3] was 0.000187 ± 5.2e-05 s⁻¹. The “self-cleavage kobs at 2500 uM GlcN6P” value in series [5] is 0.00159 ± 0.00063 s⁻¹. For the same variant, in series [6], the “self-cleavage kobs at 10000 uM GlcN6P” value came to 0.00376 ± 0.0012 s⁻¹.

With A15C U56A G63C C70A, in series [1], the kcat came to 5.44e-05 ± 1.8e-05 s⁻¹. Further, the “self-cleavage kobs at 160 uM GlcN6P” value in series [3] is 5.41e-05 ± 2.2e-05 s⁻¹. Also, the “self-cleavage kobs at 2500 uM GlcN6P” value in series [5] came out at 7.34e-05 ± 3.6e-05 s⁻¹.

In the case of A12G U69C, in series [1], the kcat was 0.000893 ± 0.00026 s⁻¹. For the same variant, the KM in series [2] stood at 3900 ± 1900 µM. In addition, the “self-cleavage kobs at 640 uM GlcN6P” value in series [4] amounted to 0.000152 ± 2e-05 s⁻¹. The “self-cleavage kobs at 2500 uM GlcN6P” value in series [5] worked out at 0.000243 ± 5.4e-05 s⁻¹. Besides, the “self-cleavage kobs at 10000 uM GlcN6P” value in series [6] is 0.0007 ± 8.2e-05 s⁻¹.

(Values after the supplement of paper PMC7125110.)
